{"source": "patent US20210009673A1", "about": "“METHODS FOR REGULATING BREAST CANCERS” (priority 2018, published 2021)", "type_in_all_cases": "cell-based, human", "key": {"[1]": {"test_system": "β-catenin", "test": "phosphorylation of serines 33, 37 and threonine 41 in β-catenin in HUVS cells", "conditions": "2 minutes after PTN", "description": "(§1) FIG. 11: FIG. 11 illustrates: human umbilical vein stromal cells not stimulated or stimulated with 50 ng/ml of PTN for 2, 5, 10 or 20 minutes were used to prepare cell lysates that were analyzed in Western blots probed with anti-phospho threonine 308 Akt (panel A), anti-phospho serine 473 Akt (panel B), anti-phospho-serine 9 GSK3β (panel C), anti-phospho-serine 33, 37 and […] β-catenin (panel D) or anti-actin antibodies (panel E). Akt was immunoprecipitated from those lysates using anti-Akt antibodies, incubated with a fusion peptide containing the 20 N-terminal amino acids of GSK3β and analyzed in Western-blots probed using anti-phospho-serine 9 GSK3β antibodies (panel F).\nA key function of activated GSK3β in the pathway of β-catenin translocation into the nuclei is to phosphorylate β-catenin serines 33, 37 and threonine 41. […] The levels of phosphorylation of serine 33, 37 and threonine 41 in β-catenin were therefore measured in Western blots of lysates from PTN-stimulated cells probed with anti-β-catenin antibodies that recognize phosphoserines 33, 37 and threonine 41. […] In the control study, β-catenin phosphorylated in serines 33, 37 and threonine 41 was readily detected when the cells are not stimulated with PTN. […]"}, "[2]": {"test_system": "β-catenin", "test": "tyrosine phosphorylation of β-catenin in PTN-stimulated U87MG cells", "conditions": "control U87MG cells; 50 ng PTN/ml", "description": "FIG. 1: FIG. 1 illustrates in (A) PTN stimulation of tyrosine phosphorylation of β-catenin in cells that express RPTPβ/ζ and ALK. COS7 cells transiently expressing ALK and RPTPβ/ζ were stimulated with 10 ng PTN/ml. Cell lysates were prepared and used to immunoprecipitate β-catenin. The immunoprecipitates were analyzed in Western blots probed with anti-phosphotyrosine antibodies. Lane 1, cells transfected with ALK that were not stimulated with PTN. Lane 2, cells transfected with ALK stimulated with PTN. Lane 3, cells transfected with empty vector not stimulated with PTN. Lane 4, cells transfected with empty vector stimulated with PTN. […] The immunoprecipitates were analyzed in Western blots probed with anti-phosphotyrosine antibodies. […] Cell lysates were used to immunoprecipitate β-catenin and the immunoprecipitates were analyzed in Western blots probed with anti-phospho-tyrosine antibodies and reprobed with anti-β-catenin antibodies. […] MCF-7 cells that stably express EGFR/RPTPβ/ζ not transfected with ALK were analyzed as above. […] Lysates of MCF-7 cells and lysates of MCF-7 cells stimulated with EGF were used to immunoprecipitate β-catenin and the immunoprecipitates were analyzed in Western blots probed with anti-phospho-tyrosine antibodies and separately with anti-β-catenin antibodies. […]"}, "[3]": {"test_system": "Akt", "test": "phosphorylation of Akt in PTN-stimulated HUVS cells", "conditions": "PTN 50 ng/ml, 5 minutes, elevated at 20 minutes", "description": "as §1\nTo pursue this pathway of nuclear import of β-catenin, HUVS cells were stimulated with PTN (50 ng/ml), lysed, and analyzed in Western blots probed with anti-phosphothreonine 308 Akt or anti-phosphoserine 473 Akt antibodies (FIG. 11, panel A and B). […]\nThe association of adaptor proteins that associate with specific phosphorylated sites in activated EGFR are responsible for the activation of phosphatidyl-inositol 3-kinase (PI3K). […] The cells were stimulated with PTN for 2, 5, 10, and 20 minutes, cell lysates were prepared, and the lysates were analyzed in Western blots probed with anti-phospho-Akt (Ser473), anti-phospho-GSKβ (Ser9), and anti-phospho-β-catenin (Thr42) antibodies. […]"}}, "data": [{"molecule": "pleiotrophin (protein, UniProt P21246 33-168, looked up) Pleiotrophin: GKKEKPEKKVKKSDCGEWQWSVCVPTSGDCGLGTREGTRTGAECKQTMKTQRCKIPCNWKKQFGAECKYQFQAWGECDLNTALKTRTGSLKRALHNAECQKTVTISKPCGKLTKPKPQAESKKKKKEGKKQEKMLD", "values": [{"measurement": "phosphorylation of serines 33, 37 and threonine 41 in β-catenin", "setting": "[1]", "result": "sharply decreased"}, {"measurement": "phosphorylation of β-catenin", "setting": "[2]", "result": "sharply increased"}, {"measurement": "phosphorylation of Akt threonine 308 and serine 473", "setting": "[3]", "result": "rapid increase"}]}]}
